# Reference: EP2469278A1, “Reagentless fluorescent biosensors from nanofitins, rational design methods to create reagentless fluorescent biosensors and methods of their use” (Institut Pasteur, priority 2010, dated 2012)
# Changes are numbered by the printed parent chain. Names may count otherwise. “And” between values parts separate entries of the source, which are not always exact repeats. Equal entries are not always repeated.
# B1: Lys24: H4S conjugate: residue Lys24 changed into cysteine and coupled with IANBD (SEQ ID NO: 61) (conjugate)
# chain: MRGSHHHHHHGSVKVKFFWNGEEKEVDTSKIVWVCRAGKSVLFIYDDNGKNGYGDVTEKDAPKELLDMLARAEREKKLN
# modifications: IANBD fluorophore on Cys24
# B2: Ala26: H4S conjugate: residue Ala26 changed into cysteine and coupled with IANBD (SEQ ID NO: 62) (conjugate)
# chain: B1 chain with C35K, A37C
# modifications: IANBD fluorophore on Cys26
# B3: H4S(wt) (designed binder)
# chain: B1 chain with C35K
# notes: Nanofitin derived from Sac7d (Sulfolobus acidocaldarius), H4 with Cys29 changed into Ser29; His-tagged; also called H4S protein; parental Nanofitin H4S(wt)
# B4: H4S cysteine mutant A26C (not conjugated) (designed binder)
# chain: B1 chain with C35K, A37C
# notes: Free cysteine mutant, measured in reducing conditions
# B5: H4S cysteine mutant K39C (not conjugated) (designed binder)
# chain: B1 chain with C35K, K50C
# notes: as for B4
# B6: H4S cysteine mutant V21C (not conjugated) (designed binder)
# chain: B1 chain with V32C, C35K
# notes: as for B4
# B7: H4S cysteine mutant W8C (not conjugated) (designed binder)
# chain: B1 chain with W19C, C35K
# notes: as for B4
# B8: H4S(K24C) (not conjugated) (designed binder)
# chain: B1 chain
# notes: as for B4
# B9: H4S(K24ANBD) (designed binder)
# chain: B1 chain
# modifications: Cys at position 24 (H4S numbering) coupled to IANBD ester (ANBD)
# notes: also called H4S(Lys24ANBD); Lys24
# B10: H4S(A26ANBD) (designed binder)
# chain: B1 chain with C35K, A37C
# modifications: Cys at position 26 (H4S numbering) coupled to IANBD ester (ANBD)
# notes: also called Ala26
# B11: H4S conjugate, IANBD fluorophore coupled at position Lys39 (designed binder)
# chain: B1 chain with C35K, K50C
# modifications: Cys at position 39 (H4S numbering) coupled to IANBD ester (ANBD)
# B12: H4S conjugate, IANBD fluorophore coupled at position Phe7 (designed binder)
# chain: B1 chain with F18C, C35K
# modifications: Cys at position 7 (H4S numbering) coupled to IANBD ester (ANBD)
# B13: H4S conjugate, IANBD fluorophore coupled at position Ser29 (designed binder)
# chain: B1 chain with C35K, S40C
# modifications: Cys at position 29 (H4S numbering) coupled to IANBD ester (ANBD)
# B14: H4S conjugate, IANBD fluorophore coupled at position Thr46 (designed binder)
# chain: B1 chain with C35K, T57C
# modifications: Cys at position 46 (H4S numbering) coupled to IANBD ester (ANBD)
# B15: H4S conjugate, IANBD fluorophore coupled at position Trp8 (designed binder)
# chain: B1 chain with W19C, C35K
# modifications: Cys at position 8 (H4S numbering) coupled to IANBD ester (ANBD)
# B16: H4S conjugate, IANBD fluorophore coupled at position Tyr42 (designed binder)
# chain: B1 chain with C35K, Y53C
# modifications: Cys at position 42 (H4S numbering) coupled to IANBD ester (ANBD)
# B17: H4S conjugate, IANBD fluorophore coupled at position Val21 (designed binder)
# chain: B1 chain with V32C, C35K
# modifications: Cys at position 21 (H4S numbering) coupled to IANBD ester (ANBD)
# B18: H4S conjugate, IANBD fluorophore coupled at position Trp22 (designed binder)
# chain: B1 chain with W33C, C35K
# modifications: Cys at position 22 (H4S numbering) coupled to IANBD ester (ANBD)
# Molecular target: T1, hen egg-white lysozyme (HEL) (Gallus gallus, UniProt P00698)
# T1 construct: hen egg-white lysozyme (HEL); purchased Sigma
# Assay: Titration of H4S conjugates with HEL, monitored by fluorescence
# Assay type: binding
# Conditions: HEL; rounded value quoted in text; read-out: Kd
# Method: (§1) The binding and fluorescence experiments were performed at equilibrium as if the preparations of conjugates were homogeneous, i. e. as if yc = 1. The binding reactions were conducted by incubating 0.3 µM of conjugate with variable concentrations of the HEL or BSA antigens in a volume of 1 mL, for 30 min in the dark with gentle shaking. The reactions were carried out in Buffer C or in a mixture v:(1-v) of calf serum and Buffer C as indicated in example 2.
# The conjugate (or biosensor) B and antigen A form a 1:1 complex B:A according to the reaction: B + A↔B:A [formula] At equilibrium, the concentration [B:A] of the complex is given by the equation: [B:A] = 0.5{[B]0+[A]0+Kd-(((([B]0+[A]0+Kd))^2-4[B]0[A]0))^(1/2)} [formula] where Kd is the dissociation constant, and [A]0 and [B]0 are the total concentrations of A and B, respectively (Renard et al., 2003).
# The fluorescence of the IANBD conjugates was excited at 485 nm (5 nm slit width) and its intensity measured between 520 and 550 nm (20 nm slit width) with a FP-6300 spectrofluorometer (Jasco). The signal of HEL alone or BSA alone was measured in an independent experiment and subtracted from the global signal of the binding mixture to give the specific fluorescence intensity F of each conjugate. The intensity F at a given value of [A]0 satisfies the following equation: (F-F0)/F0 = ΔF/F0 = (ΔF∞/F0)([B:A]/[B]0) [formula] where F0 and F∞ are the values of F at zero and saturating concentrations of A (Renard et al., 2003). The values of ΔF∞/F0, Kd, and [B]0 could be determined by fitting Equation 5, in which [B:A] is given by Equation 4, to the experimental values of ΔF/F0, measured in a titration experiment. The fittings were performed with the Kaleidagraph software (Synergy Software).
# The sensitivity s and relative sensitivity sr of a conjugate can be defined by the following equations for the low values of [A]0, i. e. in the initial part of the titration curve: ΔF = s[A]0 [formula] ΔF/F0 = sr [A]0 /[B]0 [formula] s and sr can be expressed as functions of characteristic parameters of the conjugate: sr = (ΔF∞/F0)([B]0/(Kd+[B]0)) [formula] s = fb sr [formula] where fb = F0/[B]0 is the molar fluorescence of the free conjugate (Renard and Bedouelle, 2004). Equation 8 implies that sr is maximal when the biosensor B is present at a concentration [B]0 >> Kd, as every newly titrated molecule A then forms a complex. Equation 6 implies that the lower limit of detection δ[A]0 of the conjugate is linked to the lower limit of measurement of the spectrofluorometer δF by the following equations: δ[A]0 = s^-1 δF = sr^-1 [B]0 (δF/F0) [formula]
row,Molecule,Kd [nM]
1,B1,100

# Same assay, conditions: [B]0 = 0.3 µM; δF/F0 = […] (Equation 10)
row,Molecule,lower limit of detection δ[A]0 [nM]
1,B1,0.35

# Same assay, conditions: relative sensitivity of the conjugate at a fixed concentration of 0.3 µM (Equation 8), HEL, buffer C
row,Molecule,sr
1,B1,6.61
2,B2,4.66

# Same assay, conditions: relative sensitivity of the conjugate at a fixed concentration of 0.3 µM (Equation 8), HEL, buffer C; listed as H4S(Lys24ANBD)
row,Molecule,sr
1,B1,6.6

# Molecular target: T1, hen egg-white lysozyme (HEL)
# Assay: Selectivity: fluorescence signal of conjugate in mixtures of calf serum and buffer C
# Assay type: binding
# Conditions: in ≤ 50 % serum; 0.3 µM conjugate, 10 µM HEL
# Method: as §1
# The selectivity of a biosensor refers to the extent to which it can recognize a particular analyte in a complex mixture without interference from other components (Vessman et al., 2001). The selectivity of the H4S(K24ANBD) conjugate was characterized by comparing its fluorescence properties in serum and in buffer C. More specifically, the variations of the F0 and F10µM parameters were measured as functions of the concentration in serum (Figure 3). Given that Kd = 0.1 µM for H4S(K24ANBD), this conjugate was fully saturated with HEL at 10 µM. […] As expected, the absorbance of the serum alone increased linearly with its concentration, in agreement with the Beer-Lambert law, at both 485 nm and 536 nm, which were the wavelengths of fluorescence excitation and emission in our experiments. […] The same increase and decrease was observed when measuring the fluorescence of a conjugate between IANBD and 2-mercaptoethanol. […]
row,Molecule,(F10µM - F0)/F0
1,B1,≥ 0.25

# Same assay, conditions: serum (v/v) in buffer C; 0.3 µM conjugate, 10 µM HEL
row,Molecule,concentration of serum in which the conjugate could still operate [%]
1,B1,≤ 50

# Molecular target: T2, hen egg-white lysozyme (hen, UniProt P00698 19-147)
# T2 construct: also called HEL
# Assay: Biacore kinetics, HEL immobilised; Kd' = koff/kon
# Conditions: not given
row,Molecule,Kd [nM]
1,B3,31
2,B4,60
3,B5,38
4,B6,332
5,B7,68
6,B8,117

# Molecular target: T3, bovine serum albumin (bovine, UniProt P02769 25-607)
# T3 construct: Heterologous antigen used as specificity control; also called BSA
# Assay: fluorescence titration with BSA, 0.3 µM conjugate, buffer C
# Conditions: not given
row,Molecule,Kd [nM]
1,B9,1000
2,B10,1400

# Molecular target: T2, hen egg-white lysozyme
# Assay: Biacore, HEL immobilised; Kd'' dissociation constant at steady state
# Conditions: not given
row,Molecule,Kd [nM]
1,B3,18
2,B4,54
3,B5,24
4,B6,389
5,B7,66
6,B8,104

# Molecular target: T2, hen egg-white lysozyme
# Assay: fluorescence titration in solution, 0.3 µM conjugate, buffer C, 25 °C
# Conditions: not given
Molecule,Kd [nM],ΔF∞/F0 (maximal relative variation of fluorescence on HEL binding)
B11,126,1.65
B12,42,0.26
B13,33,0.55
B14,100,0.36
B15,189,1.47
B16,2480,6.6
B17,296,6.3
B9,98,8.8
B10,206,7.9

# Molecular target: T2, hen egg-white lysozyme
# Assay: comparison of Kd in solution (fluorescence titration against competition Biacore)
# Conditions: not given
row,Molecule,fold lower affinity than the parental protein H4S(wt) [fold]
1,B9,~2

# Molecular target: T2, hen egg-white lysozyme
# Assay: competition Biacore in solution, buffer D; free H4S measured on immobilised HEL
# Conditions: not given
row,Molecule,Kd [nM]
1,B3,40.3

# Molecular target: T2, hen egg-white lysozyme
# Assay: fluorescence titration in solution, 0.3 µM conjugate, buffer C, 25 °C (fit R = 0.72)
# Conditions: not given
row,Molecule,Kd [nM]
1,B18,1230

# Molecular target: T2, hen egg-white lysozyme
# Assay: from Kd in solution: fluorescence titration of conjugate against competition Biacore of H4S(wt)
# Conditions: not given
row,Molecule,ΔΔG (conjugate against H4S(wt))
1,B11,≥ 0.5 kcal/mol and ≤ 1.2 kcal/mol
2,B12,≤ 0.5 kcal/mol
3,B13,≤ 0.5 kcal/mol
4,B14,≤ 0.5 kcal/mol
5,B15,≥ 0.5 kcal/mol and ≤ 1.2 kcal/mol
6,B18,≥ 1.5 kcal/mol
7,B16,≥ 1.5 kcal/mol
8,B17,≥ 0.5 kcal/mol and ≤ 1.2 kcal/mol
9,B9,≥ 0.5 kcal/mol and ≤ 1.2 kcal/mol
10,B10,≥ 0.5 kcal/mol and ≤ 1.2 kcal/mol

# Molecular target: T2, hen egg-white lysozyme
# Assay: Biacore kinetics, HEL immobilised on CM5 chip, buffer E (reducing), 25 °C, 1:1 Langmuir model
# Conditions: not given
Molecule,koff [s⁻¹],kon [M⁻¹ s⁻¹]
B3,0.015,490000
B4,0.023,380000
B5,0.012,310000
B6,0.011,40000
B7,0.03,450000
B8,0.023,160000

# Molecular target: bovine serum albumin (BSA) (Bos taurus, UniProt P02769)
# Assay: Specificity: titration of H4S conjugates with heterologous antigen BSA, monitored by fluorescence
# Conditions: BSA as antigen, buffer C, 0.3 µM conjugate
row,Molecule,ΔF∞/F0
1,B1,0.26± 0.01
2,B2,0.73 ± 0.04

# Same assay, conditions: [B]0 = 0.3 µM
row,Molecule,relative sensitivities sr lower for BSA than for HEL [fold]
1,B1,106
2,B2,36
